Target: QP3732 (Her2M2-Fc)
Experiment: ELISA

EC50: 0.0307 µg/mL
B1: pertuzumab (antibody, V domains shown)
VH: EVQLVESGGGLVQPGGSLRLSCAASGFTFTDYTMDWVRQAPGKGLEWVADVNPNSGGSIYNQRFKGRFTLSVDRSKNTLYLQMNSLRAEDTAVYYCARNLGPSFYFDYWGQGTLVTVSS
VL: DIQMTQSPSSLSASVGDRVTITCKASQDVSIGVAWYQQKPGKAPKLLIYSASYRYTGVPSRFSGSGSGTDFTLTISSLQPEDFATYYCQQYYIYPYTFGQGTKVEIK

— patent US20240043567A1 (published 2024)
